Legend:
Experiment in all cases: IEDB peptide-MHC binding, purified MHC/competitive/fluorescence; filed as Kd, often an IC50 or EC50 that approximates it; ≥ and ≤ were set here for values at or beyond the usual limits of such assays
Details in all cases: source organism: Salmonella enterica subsp. enterica serovar Typhi
HLA-B*45:06 = molecular target: HLA-B*45:06
HLA-B*58:01 = molecular target: HLA-B*58:01
HLA-A*32:15 = molecular target: HLA-A*32:15
HLA-B*40:13 = molecular target: HLA-B*40:13
HLA-A*03:19 = molecular target: HLA-A*03:19
HLA-B*15:42 = molecular target: HLA-B*15:42
HLA-B*51:01 = molecular target: HLA-B*51:01
HLA-A*02:01 = molecular target: HLA-A*02:01
HLA-C*06:02 = molecular target: HLA-C*06:02
HLA-C*04:01 = molecular target: HLA-C*04:01
HLA-A*68:23 = molecular target: HLA-A*68:23
HLA-A*32:07 = molecular target: HLA-A*32:07
HLA-B*15:01 = molecular target: HLA-B*15:01

## MTMLTRWKI
HLA-B*45:06
  Kd: ≥ 5000 nM
HLA-B*58:01
  Kd: 5 nM
HLA-A*32:15
  Kd: 47.8 nM
HLA-B*40:13
  Kd: 365 nM
HLA-A*03:19
  Kd: 3510 nM
HLA-B*15:42
  Kd: ≥ 5000 nM
HLA-B*51:01
  Kd: ≥ 20000 nM
HLA-A*02:01
  Kd: 222 nM
HLA-C*06:02
  Kd: 641 nM
HLA-C*04:01
  Kd: ≥ 5000 nM
HLA-A*68:23
  Kd: 0.3 nM
HLA-A*32:07
  Kd: 77.2 nM
HLA-B*15:01
  Kd: ≥ 20000 nM

Source: the Immune Epitope Database (IEDB)
